According to patent publication US20260070974A1 (NONA BIOSCIENCES SUZHOU, published 2026):

T1: human Siglec-2-his protein (Acrobiosystems, Cat CD2-H52H8) (human, UniProt P20273 20-687)
T1 construct: Bought protein; not shown: his tag
T1 sequence (looked up): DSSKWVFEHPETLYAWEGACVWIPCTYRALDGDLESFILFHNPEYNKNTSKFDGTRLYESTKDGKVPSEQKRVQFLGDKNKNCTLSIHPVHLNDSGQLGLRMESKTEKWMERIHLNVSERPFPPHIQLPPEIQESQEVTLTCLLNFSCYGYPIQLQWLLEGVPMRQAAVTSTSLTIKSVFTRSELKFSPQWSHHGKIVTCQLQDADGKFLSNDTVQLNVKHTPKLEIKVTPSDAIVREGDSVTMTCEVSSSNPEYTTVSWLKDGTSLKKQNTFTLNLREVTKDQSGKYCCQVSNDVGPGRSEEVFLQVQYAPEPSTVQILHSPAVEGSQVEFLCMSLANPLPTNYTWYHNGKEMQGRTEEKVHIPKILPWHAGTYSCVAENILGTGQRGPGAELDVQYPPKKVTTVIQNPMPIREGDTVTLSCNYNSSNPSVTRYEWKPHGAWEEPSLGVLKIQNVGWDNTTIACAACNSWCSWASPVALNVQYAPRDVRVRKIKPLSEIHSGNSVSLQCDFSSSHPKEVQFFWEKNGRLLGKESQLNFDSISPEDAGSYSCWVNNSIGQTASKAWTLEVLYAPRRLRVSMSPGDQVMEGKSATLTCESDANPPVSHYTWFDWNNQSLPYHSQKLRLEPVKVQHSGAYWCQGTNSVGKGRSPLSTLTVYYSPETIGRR

B1: PR301286 (antibody, human IgG1, kappa, V domains shown)
VH: QVQLVESGGGVVQPGKSLRLSCAASGFTFSSYGMHWVRQAPGKGLEWVAVIWIDGSNRYYAASVKGRFTISRDNSKNTLYLQMNSLRAEDTAVYYCTRGYGDYAYVMDVWGQGASVTVSS
VL: DIVMTQSPLSLPVTPGEPASISCRSSQSLLPGNGYNYLDWYLQKPGQSPQLLIYLGSNRASGVPDRFSGSGSGTDFTLKISRVEAEDVGIYYCMQALQSPLTFGGGTKVEIKR
notes: Parent of the PTM variants PR301286-1, -3, -5, -6, -7
B2: PR300066 (Tab) (antibody, human IgG1, kappa, V domains shown)
VH: QVQLQQPGAELVKPGASVKMSCKASGYTFTSYWITWVIQRPGQGLEWIGDIYCGSDTMHYNEKFKNKATLTVDTSSSTAYMQLSSLTSEDSAVYYCARWWDYGSSYDYFDYWGQGTTLTVSS
VL: DIKMTQSPSSMYASLGERVTITCKASQDINSYLSWFQQKPGKSPKTLIYRANRLVDGVPSRFSGSGSGQDYSLTISSLEYEDMGIYYCLQYDEFPYTFGGGTKLEIKR
notes: variable region from clone 5G12 of WO 2018/057735A1, on human IgG1/kappa constant regions; also called 5G12
B3: PR301289 (antibody, human IgG1, kappa, V domains shown)
VH: QVQLVQSGAEVKKPGASVKVSCRASGYTFTSYDINWVRQATGQGLEWMGWMNPHSGDTGYAQNFQGRVTMTWNTSISTAYMELSSLRSEDTAVYYCARRRVGVYYYGMDVWGQGTTVTVSS
VL: ENVLTQSPGTLSLSPGERATLSCRASQSVSSSYFGWYQQKPGQAPRLLIYGASSRATGIPDRFSGSGSGTDFTLTISRLEPEDFAVYYCQQYGSSPITFGQGTRLEIKR
notes: Parent of the PTM variants PR301289-1 and -2
B4: PR301285 (antibody, human IgG1, kappa, V domains shown)
VH: QVQLQESGPGLVKPSETLSLTCTVSGGSMISYYWSWLRQPPGKGLEWIGYIYYSGNTNYNPSLKSRITIAVDTSKNQFSLKLNSVTAADTAVYYCARERELHPYYFDYWGQGTLVTVSS
VL: DIQLTQSPSFLSASVGDRVTITCRASQGIDNYLAWYQQKPGKAPKVLIYAASTLQSGVPSRFSGSGSGTEFTLTISSLQPEDFATYYCQQLNSYPLTFGGGTKVEIKR

target: T1, human Siglec-2-his protein …; test: ELISA on coated human Siglec-2-his, antibody at 100 nM and 10 nM, goat anti-human IgG-HRP, OD450
Procedure: Human Siglec-15 ECD-his protein (Acrobiosystems, Cat SG5-H52H3), human Siglec-2-his protein (Acrobiosystems, Cat CD2-H52H8), human Siglec-4a-his protein (Acrobiosystems, Cat MAG-H52H8), human Siglec-3-his protein (Acrobiosystems, Cat CD3-H5226), human Siglec-10-his protein (Acrobiosystems, Cat SIO-H52H9), and human PD-L1/B7-H1-his protein (Acrobiosystems, Cat PD1-H5229), each at 1 μg/mL and dissolved in PBS, were each added to an ELISA plate at 100 μL/well for coating and the plate was incubated overnight at 4° C. The ELISA plate was then blocked with PBST (PBS+0.05% Tween 20) containing 2% BSA at 200 μL/well and incubated at 37° C. for 1 h. The ELISA plate was washed 4 times with PBST. The anti-Siglec-15 antibody diluted in a gradient (concentrations: 100 nM and 10 nM) was added to the ELISA plate at 100 μL/well and the plate was incubated at 37° C. for 1 h. The ELISA plate was washed 4 times with PBST. The goat anti-human IgG (H+L)-HRP (1:5000, Jackson, Cat 109-035-088) was added at 100 μL/well and the plate was incubated at 37° C. for 1 h. The ELISA plate was washed 4 times with PBST. The TMB substrate (Biopanda, Cat TMB-S-003) was added at 100 μL/well, and the plate was incubated at room temperature for 5 min, and then the stop buffer (Solarbio, Cat #: C1058) was added at 100 μL/well to stop the reaction.

Binding result, no binding (tested: 100 nM):
B1
B2
B3
B4
